# Laboratory results from publication PMC12126155 (Molecular cell, 2025).
# Target: histone H4 (X. laevis), as in the H3K4Cme3 nucleosome (X. laevis, UniProt P62799 1-103)
# Assay: cryo-EM structure
binder,measurement,value
H. sapiens Chromodomain Helicase DNA Binding Protein 1 (CHD1 residues 1-1327 lacking the CHCT domain) (enzyme) MNGHSDEESVRNSSGESSQSDDDSGSASGSGSGSSSGSSSDGSSSQSGSSDSDSGSESGSQSESESDTSRENKVQAKPPKVDGAEFWKSSPSILAVQRSAILKKQQQQQQQQQHQASSNSGSEEDSSSSEDSDDSSSEVKRKKHKDEDWQMSGSGSPSQSGSDSESEEEREKSSCDETESDYEPKNKVKSRKPQNRSKSKNGKKILGQKKRQIDSSEEDDDEEDYDNDKRSSRRQATVNVSYKEDEEMKTDSDDLLEVCGEDVPQPEEEEFETIERFMDCRIGRKGATGATTTIYAVEADGDPNAGFEKNKEPGEIQYLIKWKGWSHIHNTWETEETLKQQNVRGMKKLDNYKKKDQETKRWLKNASPEDVEYYNCQQELTDDLHKQYQIVERIIAHSNQKSAAGYPDYYCKWQGLPYSECSWEDGALISKKFQACIDEYFSRNQSKTTPFKDCKVLKQRPRFVALKKQPSYIGGHEGLELRDYQLNGLNWLAHSWCKGNSCILADEMGLGKTIQTISFLNYLFHEHQLYGPFLLVVPLSTLTSWQREIQTWASQMNAVVYLGDINSRNMIRTHEWTHHQTKRLKFNILLTTYEILLKDKAFLGGLNWAFIGVDEAHRLKNDDSLLYKTLIDFKSNHRLLITGTPLQNSLKELWSLLHFIMPEKFSSWEDFEEEHGKGREYGYASLHKELEPFLLRRVKKDVEKSLPAKVEQILRMEMSALQKQYYKWILTRNYKALSKGSKGSTSGFLNIMMELKKCCNHCYLIKPPDNNEFYNKQEALQHLIRSSGKLILLDKLLIRLRERGNRVLIFSQMVRMLDILAEYLKYRQFPFQRLDGSIKGELRKQALDHFNAEGSEDFCFLLSTRAGGLGINLASADTVVIFDSDWNPQNDLQAQARAHRIGQKKQVNIYRLVTKGSVEEDILERAKKKMVLDHLVIQRMDTTGKTVLHTGSAPSSSTPFNKEELSAILKFGAEELFKEPEGEEQEPQEMDIDEILKRAETHENEPGPLTVGDELLSQFKVANFSNMDEDDIELEPERNSKNWEEIIPEDQRRRLEEEERQKELEEIYMLPRMRNCAKQISFNGSEGRRSRSRRYSGSDSDSISEGKRPKKRGRPRTIPRENIKGFSDAEIRRFIKSYKKFGGPLERLDAIARDAELVDKSETDLRRLGELVHNGCIKALKDSSSGTERTGGRLGKVKGPTFRISGVQVNAKLVISHEEELIPLHKSIPSDPEERKQYTIPCHTKAAHFDIDWGKEDDSNLLIGIYEYGYGSWEMIKMDPDLSLTHKILPDDPDKKPQAKQLQTRADYLIKLLSRDLAKKEALSGAG,binding result,binds
